Assay results from the supplement of paper PMC12067230.
± gives the uncertainty stated by the source.

assay: amyloid nucleation score relative to WT ADan (yeast Sup35 reporter selection) (log enrichment difference); higher = more amyloid nucleation
Method: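 Deep mutational scan of the ADan peptide fused to the Sup35 nucleation domain (SupN) in S. cerevisiae [psi-pin-], covering all single amino-acid substitutions and stop truncations (truncations = sequence up to the stop). After 24 h Cu2+ induction, cells were selected on -ADE-URA plates for 7 d at 30 °C. The nucleation score is log enrichment (output/input, deep sequencing) minus that of WT ADan, as the error-weighted mean of 3 biological replicates (DiMSum).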

Q: With EAS [N-4-*] as the substance, how does the amyloid nucleation score read?
A: -2.54 ± 0.48

Q: Which amyloid nucleation score does the source give for EASN [C-5-*] here?
A: -4.07 ± 0.81

Q: Which amyloid nucleation score does the source give for EASNC [F-6-*] here?
A: -3.12 ± 0.32

Q: For EASNCF [A-7-*], which amyloid nucleation score is on record?
A: -4.37 ± 0.56

Q: With EASNCFA [I-8-*] as the substance, how does the amyloid nucleation score read?
A: -3.92 ± 0.58

Q: Which amyloid nucleation score does the source give for EASNCFAI [R-9-*] here?
A: -3.67 ± 0.55

Q: For EASNCFAIR [H-10-*], which amyloid nucleation score is on record?
A: -4.06 ± 0.6

Q: With EASNCFAIRH [F-11-*] as the substance, how does the amyloid nucleation score read?
A: -3.45 ± 0.39

Q: With EASNCFAIRHF [E-12-*] as the substance, how does the amyloid nucleation score read?
A: -3.42 ± 0.34

Q: With EASNCFAIRHFE [N-13-*] as the substance, how does the amyloid nucleation score read?
A: -5.86 ± 0.85

Q: For EASNCFAIRHFEN [K-14-*], which amyloid nucleation score is on record?
A: -4.92 ± 0.57

Q: Which amyloid nucleation score does the source give for EASNCFAIRHFENK [F-15-*] here?
A: -4.43 ± 0.56

Q: For EASNCFAIRHFENKF [A-16-*], which amyloid nucleation score is on record?
A: -4.34 ± 0.67

Q: Which amyloid nucleation score does the source give for EASNCFAIRHFENKFA [V-17-*] here?
A: -5.63 ± 1.4

Q: With EASNCFAIRHFENKFAV [E-18-*] as the substance, how does the amyloid nucleation score read?
A: -3.23 ± 0.49

Q: With EASNCFAIRHFENKFAVE [T-19-*] as the substance, how does the amyloid nucleation score read?
A: -3.43 ± 0.55

Q: With EASNCFAIRHFENKFAVET [L-20-*] as the substance, how does the amyloid nucleation score read?
A: -4.16 ± 0.68
